The source of these data is the Human Domainome abundance scans (Beltran et al. 2025).

± gives the uncertainty stated by the source.

The chains are these.
B1: Homeobox protein cut-like 1, residues 548 to 629; numbered along this chain, P39880 (parent)
chain: GEEMDTAEIARQVKEQLIKHNIGQRIFGHYVLGLSQGSVSEILARPKPWNKLTVRGKEPFHKMKQFLSDEQNILALRSIQGR

The variants in this data set derive from B1. Nature of the data set: abundance fitness (aPCA) (normalised: wild type 0, dead -1); higher = more abundant; growth selection in yeast, the domain comes from the species named. Particulars: Homo sapiens.
Turning to GEEMDTAEIARQVKEQLIKHNIGQRIFGHYVLGLSQGSVSEILARPKPWNKLTVRGKEPFHKMKQFLSDEQNILALRSIQFR, the abundance fitness was -0.138 ± 0.059. The same measure for GEEMDTAEIARQVKEQLIKHNIGQRIFGHYVLGLSQGSVSEILARPKPWNKLTVRGKEPFHKMKQFLSDEQNILALRSIQDR: 0.043 ± 0.04; for GEEMDTAEIARQVKEQLIKHNIGQRIFGHYVLGLSQGSVSEILARPKPWNKLTVRGKEPFHKMKQFLSDEQNILALRSIQKR: -0.068 ± 0.054.

With GEEMDTAEIARQVKEQLIKHNIGQRIFGHYVLGLSQGSVSEILARPKPWNKLTVRGKEPFHKMKQFLSDEQNILALRSIQYR, the abundance fitness is -0.163 ± 0.07. Then GEEMDTAEIARQVKEQLIKHNIGQRIFGHYVLGLSQGSVSEILARPKPWNKLTVRGKEPFHKMKQFLSDEQNILALRSIQIR, with 0.008 ± 0.057; and GEEMDTAEIARQVKEQLIKHNIGQRIFGHYVLGLSQGSVSEILARPKPWNKLTVRGKEPFHKMKQFLSDEQNILALRSIQER, with 0.105 ± 0.048; and GEEMDTAEIARQVKEQLIKHNIGQRIFGHYVLGLSQGSVSEILARPKPWNKLTVRGKEPFHKMKQFLSDEQNILALRSIQVR, with 0.024 ± 0.035. As for GEEMDTAEIARQVKEQLIKHNIGQRIFGHYVLGLSQGSVSEILARPKPWNKLTVRGKEPFHKMKQFLSDEQNILALRSIQRR, the abundance fitness is -0.021 ± 0.036. GEEMDTAEIARQVKEQLIKHNIGQRIFGHYVLGLSQGSVSEILARPKPWNKLTVRGKEPFHKMKQFLSDEQNILALRSIEGR: the abundance fitness turned out to be 0 ± 0.037.

Consider GEEMDTAEIARQVKEQLIKHNIGQRIFGHYVLGLSQGSVSEILARPKPWNKLTVRGKEPFHKMKQFLSDEQNILALRSIWGR, for which the abundance fitness is -0.307 ± 0.037. As to GEEMDTAEIARQVKEQLIKHNIGQRIFGHYVLGLSQGSVSEILARPKPWNKLTVRGKEPFHKMKQFLSDEQNILALRSIKGR, the abundance fitness was -0.12 ± 0.039. With GEEMDTAEIARQVKEQLIKHNIGQRIFGHYVLGLSQGSVSEILARPKPWNKLTVRGKEPFHKMKQFLSDEQNILALRSIFGR, the abundance fitness was -0.278 ± 0.062. Turning to GEEMDTAEIARQVKEQLIKHNIGQRIFGHYVLGLSQGSVSEILARPKPWNKLTVRGKEPFHKMKQFLSDEQNILALRSISGR, the abundance fitness is -0.017 ± 0.036. Take GEEMDTAEIARQVKEQLIKHNIGQRIFGHYVLGLSQGSVSEILARPKPWNKLTVRGKEPFHKMKQFLSDEQNILALRSIVGR: the abundance fitness came out at 0 ± 0.03. As for GEEMDTAEIARQVKEQLIKHNIGQRIFGHYVLGLSQGSVSEILARPKPWNKLTVRGKEPFHKMKQFLSDEQNILALRSICGR, the abundance fitness was -0.028 ± 0.049. Regarding GEEMDTAEIARQVKEQLIKHNIGQRIFGHYVLGLSQGSVSEILARPKPWNKLTVRGKEPFHKMKQFLSDEQNILALRSIAGR, the abundance fitness is 0.034 ± 0.032. The same measure for GEEMDTAEIARQVKEQLIKHNIGQRIFGHYVLGLSQGSVSEILARPKPWNKLTVRGKEPFHKMKQFLSDEQNILALRSIDGR: -0.089 ± 0.056; for GEEMDTAEIARQVKEQLIKHNIGQRIFGHYVLGLSQGSVSEILARPKPWNKLTVRGKEPFHKMKQFLSDEQNILALRSIHGR: -0.075 ± 0.06; for GEEMDTAEIARQVKEQLIKHNIGQRIFGHYVLGLSQGSVSEILARPKPWNKLTVRGKEPFHKMKQFLSDEQNILALRSIYGR: -0.188 ± 0.055.

As for GEEMDTAEIARQVKEQLIKHNIGQRIFGHYVLGLSQGSVSEILARPKPWNKLTVRGKEPFHKMKQFLSDEQNILALRSIMGR, the abundance fitness is -0.079 ± 0.038.

For the variant GEEMDTAEIARQVKEQLIKHNIGQRIFGHYVLGLSQGSVSEILARPKPWNKLTVRGKEPFHKMKQFLSDEQNILALRSITGR, the abundance fitness was -0.095 ± 0.038. In the case of GEEMDTAEIARQVKEQLIKHNIGQRIFGHYVLGLSQGSVSEILARPKPWNKLTVRGKEPFHKMKQFLSDEQNILALRSILGR, the abundance fitness is -0.126 ± 0.035. As to GEEMDTAEIARQVKEQLIKHNIGQRIFGHYVLGLSQGSVSEILARPKPWNKLTVRGKEPFHKMKQFLSDEQNILALRSIIGR, the abundance fitness was -0.098 ± 0.059. Consider GEEMDTAEIARQVKEQLIKHNIGQRIFGHYVLGLSQGSVSEILARPKPWNKLTVRGKEPFHKMKQFLSDEQNILALRSIPGR, for which the abundance fitness is -0.098 ± 0.042. Take GEEMDTAEIARQVKEQLIKHNIGQRIFGHYVLGLSQGSVSEILARPKPWNKLTVRGKEPFHKMKQFLSDEQNILALRSIRGR: the abundance fitness was -0.176 ± 0.028. For GEEMDTAEIARQVKEQLIKHNIGQRIFGHYVLGLSQGSVSEILARPKPWNKLTVRGKEPFHKMKQFLSDEQNILALRSIGGR, the abundance fitness was -0.06 ± 0.027.

Regarding GEEMDTAEIARQVKEQLIKHNIGQRIFGHYVLGLSQGSVSEILARPKPWNKLTVRGKEPFHKMKQFLSDEQNILALRSINGR, the abundance fitness is -0.026 ± 0.059. Consider GEEMDTAEIARQVKEQLIKHNIGQRIFGHYVLGLSQGSVSEILARPKPWNKLTVRGKEPFHKMKQFLSDEQNILALRTIQGR, for which the abundance fitness was 0.005 ± 0.04. The same measure for GEEMDTAEIARQVKEQLIKHNIGQRIFGHYVLGLSQGSVSEILARPKPWNKLTVRGKEPFHKMKQFLSDEQNILALRRIQGR: 0.003 ± 0.027. Consider GEEMDTAEIARQVKEQLIKHNIGQRIFGHYVLGLSQGSVSEILARPKPWNKLTVRGKEPFHKMKQFLSDEQNILALRNIQGR, for which the abundance fitness is 0.018 ± 0.049. With GEEMDTAEIARQVKEQLIKHNIGQRIFGHYVLGLSQGSVSEILARPKPWNKLTVRGKEPFHKMKQFLSDEQNILALRVIQGR, the abundance fitness is -0.139 ± 0.03. In the case of GEEMDTAEIARQVKEQLIKHNIGQRIFGHYVLGLSQGSVSEILARPKPWNKLTVRGKEPFHKMKQFLSDEQNILALRYIQGR, the abundance fitness is -0.223 ± 0.052.

As for GEEMDTAEIARQVKEQLIKHNIGQRIFGHYVLGLSQGSVSEILARPKPWNKLTVRGKEPFHKMKQFLSDEQNILALRWIQGR, the abundance fitness was -0.201 ± 0.036. Then GEEMDTAEIARQVKEQLIKHNIGQRIFGHYVLGLSQGSVSEILARPKPWNKLTVRGKEPFHKMKQFLSDEQNILALRPIQGR, with -0.359 ± 0.07.
